Assay results reported in US20050215472A1.
“And” between values parts separate entries of the source, which are not always exact repeats. Equal values may be shown once.

How the values were obtained:
[1] = biological target: prostate specific membrane antigen (PSMA), full-length human (human) (UniProt Q04609); assay: cell-based or functional assay
[2] = biological target: prostate specific membrane antigen (PSMA), full-length human (human) (UniProt Q04609); assay: cell-bound fraction of 111In mAb, average
[3] = biological target: prostate specific membrane antigen (PSMA), full-length human (human) (UniProt Q04609); assay: cell-bound fraction of 111In mAb, PSMA-3T3 cells

Chain of prostate specific membrane antigen (PSMA), full-length human (human) (Q04609 whole entry): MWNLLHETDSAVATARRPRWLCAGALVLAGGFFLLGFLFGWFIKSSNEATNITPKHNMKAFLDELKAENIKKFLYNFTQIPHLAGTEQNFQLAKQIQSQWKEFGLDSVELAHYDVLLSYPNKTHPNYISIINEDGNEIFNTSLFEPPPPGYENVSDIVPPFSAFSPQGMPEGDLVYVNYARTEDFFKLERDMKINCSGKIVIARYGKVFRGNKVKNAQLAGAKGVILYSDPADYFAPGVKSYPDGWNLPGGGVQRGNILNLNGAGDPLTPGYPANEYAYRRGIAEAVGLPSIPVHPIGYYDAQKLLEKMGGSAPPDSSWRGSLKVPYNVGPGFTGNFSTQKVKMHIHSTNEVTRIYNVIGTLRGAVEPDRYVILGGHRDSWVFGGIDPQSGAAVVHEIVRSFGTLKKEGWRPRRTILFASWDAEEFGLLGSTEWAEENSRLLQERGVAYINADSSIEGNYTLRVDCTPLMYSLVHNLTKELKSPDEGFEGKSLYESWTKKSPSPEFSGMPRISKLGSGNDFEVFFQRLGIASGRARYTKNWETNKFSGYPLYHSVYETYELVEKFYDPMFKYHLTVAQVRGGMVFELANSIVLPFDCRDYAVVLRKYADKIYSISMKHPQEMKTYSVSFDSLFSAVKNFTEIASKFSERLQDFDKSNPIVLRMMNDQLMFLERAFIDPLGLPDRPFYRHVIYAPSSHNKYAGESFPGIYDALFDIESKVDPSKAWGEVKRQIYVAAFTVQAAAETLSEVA

Immunoreactivity (%), average [2] [%]	Immunoreactivity (%) [3]	Substance	LD50, immunotoxin (Mab-Zap saporin) cytotoxicity on C4-2 cells [1] [pM]	LD50, immunotoxin (Mab-Zap saporin) cytotoxicity on PSMA-3T3 cells [1] [pM]
–	–	mAb J591 (antibody)	88.2	89
56.7	58.5% and 54.9%	111In radiolabeled CHX-A''-DTPA mJ591 (antibody)	–	–
